Measured values as given in the supplement of paper PMC9732359.
± gives the uncertainty stated by the source.

Experiment: protein stability index of a GFP-peptide fusion (yeast GPS) (PSI 1-4); higher = more stable; sorted into four equal gates, so the index is relative within each strain
Outline: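 The protein stability index of a peptide was calculated by multiplying its read frequency in each gate by that gate's number and adding the products. The peptides were tiled 17-residue stretches of yeast proteins, fused downstream of GFP on a Cherry-expressing plasmid and carried in yeast as a pooled library. Mid-log cultures in leucine-free medium were sorted into four equal gates by GFP/Cherry ratio, and each gate's plasmids were PCR-amplified and Illumina-sequenced.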

| Sequence | protein stability index (doa10∆) | protein stability index (pdr5∆) | protein stability index (san1∆) | protein stability index (ubr1∆) |
| --- | --- | --- | --- | --- |
| GIKPPKGVLLYGPPGTG [RPT4] | 2.73 ± 0.13 | 2.62 ± 0.072 | 2.22 ± 0.22 | 2.01 ± 0.075 |
| AQAQAQAQAQVYAQQST [PGD1] | 2.87 ± 0.053 | 3.05 ± 0.052 | 2.97 ± 0.045 | 3.01 ± 0.044 |
| TAVGKAAVVKTSSRQTV [RPT5] | 3.39 ± 0.065 | 3.23 ± 0.07 | 3.28 ± 0.074 | 3.15 ± 0.052 |
| PNINTWQQVTALAQQKL [GAL11] | 2.2 ± 0.058 | 2.23 ± 0.064 | 2.11 ± 0.085 | 2.08 ± 0.054 |
| IDSVEVETNTTVLADEF [RPB3] | 2.96 ± 0.076 | 3.17 ± 0.071 | 3.09 ± 0.051 | 3.16 ± 0.037 |
| KVDINADSAVNRQTLMF [PRP28] | 3.32 ± 0.06 | 3.32 ± 0.072 | 3.08 ± 0.055 | 3.17 ± 0.052 |
| ASSSPSSTDFSTCIVSL [ECM29] | 2.81 ± 0.081 | 2.26 ± 0.07 | 2.01 ± 0.1 | 1.84 ± 0.059 |
| HKHALHGTAKALAAAKK [RPL29] | 2.398 ± 0.023 | 2.425 ± 0.02 | 2.24 ± 0.023 | 2.323 ± 0.018 |
| IEKFEQVPDSLDDQIFV [RPN6] | 3.31 ± 0.079 | 3.35 ± 0.065 | 3.53 ± 0.053 | 3.27 ± 0.079 |
| ADEEEEIVDTYQEDIFV [ISW2] | 2.8 ± 0.11 | 2.67 ± 0.12 | 3.43 ± 0.12 | 2.48 ± 0.088 |
| KRVKSYMDKAKQYDNRI [LRP1] | 2.87 ± 0.047 | 2.89 ± 0.042 | 2.92 ± 0.04 | 2.83 ± 0.042 |
| AAELLDKRIVISIDSWP [DIS3] | 1.61 ± 0.062 | 1.87 ± 0.09 | 1.55 ± 0.14 | 1.95 ± 0.072 |
| YSPTSPSYSPTSPGYSP [RPO21] | 2.8 ± 0.044 | 2.94 ± 0.037 | 2.95 ± 0.039 | 2.95 ± 0.034 |
| LLWTPKKLEITSDGALS [RPR2] | 2.09 ± 0.047 | 2.42 ± 0.048 | 2.61 ± 0.044 | 2.4 ± 0.034 |
| SVDPQSSSTQNVFVILM [DIS3] | 2.83 ± 0.16 | 2.43 ± 0.17 | 2.7 ± 0.075 | 2.92 ± 0.099 |
| LSQSRIKIKSLEYEISK [YIL149C/MLP2] | 2.08 ± 0.051 | 2.68 ± 0.055 | 2.37 ± 0.07 | 2.07 ± 0.041 |
| YEAGASHGNPVVDFLKR [FAS1] | 3.17 ± 0.09 | 3.13 ± 0.099 | 3.35 ± 0.07 | 3.25 ± 0.044 |
| GEEDADEEETAEGQTNS [RPN1] | 3.26 ± 0.18 | 3.16 ± 0.26 | 3.01 ± 0.14 | – |
| IVTKDGVRKEFYELKRD [PRE7] | 2.35 ± 0.093 | 2.16 ± 0.066 | 3.04 ± 0.082 | 3.16 ± 0.07 |
| TSGTSSEQFNVWDWNNW [GAL11] | 2.56 ± 0.086 | 3.11 ± 0.11 | 2.71 ± 0.073 | 2.73 ± 0.096 |
| EFKSIEIEMKNKLEKLN [SMC4] | 1.68 ± 0.058 | 1.51 ± 0.075 | 1.42 ± 0.19 | 1.37 ± 0.046 |
| IMKFQSLSDNDLAVCAT [ECM29] | 2.03 ± 0.076 | 2.46 ± 0.067 | 2.69 ± 0.062 | 2.77 ± 0.064 |
| IAFASNYGIVELDPECQ [RRP43] | 2.34 ± 0.083 | 2.68 ± 0.055 | 2.54 ± 0.059 | 2.53 ± 0.08 |
| AINIMNRSNDALIKFME [FAS2] | 3.19 ± 0.15 | 3.45 ± 0.15 | 3.26 ± 0.093 | 3.38 ± 0.15 |
| TVPEYLKTADNRDRSFQ [PGD1] | 3.08 ± 0.084 | 3.07 ± 0.079 | 3.3 ± 0.038 | 3.07 ± 0.049 |
| EEREAAASKVKLEEESK [RPC53] | 3.29 ± 0.081 | 3.43 ± 0.095 | 3.37 ± 0.069 | 3.25 ± 0.063 |
